The record followed here is US20100298612.

Data set [1] concerns the target T1, Mycobacterium sp. (strain JLS) carboxylic acid reductase (CAR).
T1 chain: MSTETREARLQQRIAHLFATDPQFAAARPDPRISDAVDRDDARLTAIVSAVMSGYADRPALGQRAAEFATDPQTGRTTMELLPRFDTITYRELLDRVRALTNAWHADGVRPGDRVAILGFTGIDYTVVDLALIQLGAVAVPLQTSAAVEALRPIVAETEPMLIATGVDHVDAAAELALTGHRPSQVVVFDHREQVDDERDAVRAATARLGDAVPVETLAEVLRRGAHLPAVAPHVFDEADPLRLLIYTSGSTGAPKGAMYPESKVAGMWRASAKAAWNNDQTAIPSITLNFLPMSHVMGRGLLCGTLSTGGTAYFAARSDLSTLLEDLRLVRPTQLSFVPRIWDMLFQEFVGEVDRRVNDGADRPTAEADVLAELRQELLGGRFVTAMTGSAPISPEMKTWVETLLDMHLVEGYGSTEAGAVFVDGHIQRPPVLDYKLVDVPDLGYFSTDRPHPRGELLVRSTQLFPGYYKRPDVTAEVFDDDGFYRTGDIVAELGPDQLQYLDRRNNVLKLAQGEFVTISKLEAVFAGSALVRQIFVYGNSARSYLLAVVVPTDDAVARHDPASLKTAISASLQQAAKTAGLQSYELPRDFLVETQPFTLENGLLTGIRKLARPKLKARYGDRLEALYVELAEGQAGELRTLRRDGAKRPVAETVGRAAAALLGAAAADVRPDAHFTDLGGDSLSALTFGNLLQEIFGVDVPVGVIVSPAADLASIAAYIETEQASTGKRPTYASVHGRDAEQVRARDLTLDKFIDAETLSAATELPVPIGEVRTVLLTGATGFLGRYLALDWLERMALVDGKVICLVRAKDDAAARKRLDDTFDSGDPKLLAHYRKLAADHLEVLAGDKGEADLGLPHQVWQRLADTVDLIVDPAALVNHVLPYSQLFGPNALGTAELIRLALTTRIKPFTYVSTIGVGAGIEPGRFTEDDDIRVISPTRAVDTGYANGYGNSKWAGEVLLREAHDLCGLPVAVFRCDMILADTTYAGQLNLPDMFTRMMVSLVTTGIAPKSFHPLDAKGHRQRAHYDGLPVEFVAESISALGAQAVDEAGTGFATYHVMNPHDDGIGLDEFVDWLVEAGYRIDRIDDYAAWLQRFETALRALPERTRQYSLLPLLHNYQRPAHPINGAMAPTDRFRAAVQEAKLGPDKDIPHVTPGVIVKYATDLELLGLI

Data set [2] concerns the target T2, Nocardia NRRL5646 carboxylic acid reductase (CAR).
T2 chain: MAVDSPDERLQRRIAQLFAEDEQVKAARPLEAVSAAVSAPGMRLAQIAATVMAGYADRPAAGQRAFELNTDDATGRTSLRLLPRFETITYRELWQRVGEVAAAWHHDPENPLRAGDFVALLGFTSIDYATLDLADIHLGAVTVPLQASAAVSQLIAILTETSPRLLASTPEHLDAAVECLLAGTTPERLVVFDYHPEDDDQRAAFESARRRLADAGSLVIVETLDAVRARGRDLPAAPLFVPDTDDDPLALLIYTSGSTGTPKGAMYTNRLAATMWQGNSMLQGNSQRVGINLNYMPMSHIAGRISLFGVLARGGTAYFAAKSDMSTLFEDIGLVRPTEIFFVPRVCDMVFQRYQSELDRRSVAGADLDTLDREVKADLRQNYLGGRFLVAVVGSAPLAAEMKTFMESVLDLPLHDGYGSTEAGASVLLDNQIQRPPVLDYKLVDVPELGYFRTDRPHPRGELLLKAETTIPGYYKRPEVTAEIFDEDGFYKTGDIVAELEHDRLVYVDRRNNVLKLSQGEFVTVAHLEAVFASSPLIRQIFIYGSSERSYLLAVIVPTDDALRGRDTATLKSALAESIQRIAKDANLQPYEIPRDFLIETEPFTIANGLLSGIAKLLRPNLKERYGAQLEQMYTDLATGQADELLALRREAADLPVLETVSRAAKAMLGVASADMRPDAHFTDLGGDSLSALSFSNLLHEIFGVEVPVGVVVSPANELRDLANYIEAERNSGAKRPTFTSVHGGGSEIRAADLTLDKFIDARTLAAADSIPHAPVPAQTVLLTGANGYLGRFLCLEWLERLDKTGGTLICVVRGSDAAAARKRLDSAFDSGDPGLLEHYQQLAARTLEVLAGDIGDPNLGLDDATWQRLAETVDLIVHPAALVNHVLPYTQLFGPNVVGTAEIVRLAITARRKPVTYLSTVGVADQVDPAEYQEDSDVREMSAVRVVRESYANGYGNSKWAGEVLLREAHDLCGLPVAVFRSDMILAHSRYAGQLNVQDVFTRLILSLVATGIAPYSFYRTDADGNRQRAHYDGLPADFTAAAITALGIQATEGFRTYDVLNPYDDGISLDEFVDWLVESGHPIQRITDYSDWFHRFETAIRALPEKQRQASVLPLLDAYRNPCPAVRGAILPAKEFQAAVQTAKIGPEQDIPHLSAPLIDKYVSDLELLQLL

B1: Nocardia NRRL 5646 phosphopantetheinyl transferase (PPTase) (protein)
chain: MIETILPAGVESAELLEYPEDLKAHPAEEHLIAKSVEKRRRDFIGARHCARLALAELGEPPVAIGKGERGAPIWPRGVVGSLTHCDGYRAAAVAHKMRFRSIGIDAEPHATLPEGVLDSVSLPPEREWLKTTDSALHLDRLLFCAKEATYKAWWPLTARWLGFEEAHITFEIEDGSADSGNGTFHSELLVPGQTNDGGTPLLSFDGRWLIADGFILTAIAYA
Consider B1, for which the “CAR activity (in vitro conversion of hexadecanoic acid to 1-hexadecanol; Y. lipolytica CAR lysate pre-incubated with E. coli Nocardia PPTase lysate), fold improvement” value in data set [1] is on record as “by 9-20 times”; in data set [2] it was “by 3-5 times”.
